# Experimental data reported in patent US5851983A, “Elastase inhibitory polypeptide and process for production thereof by recombinant gene technology” (Teijin Limited, priority 1987, dated 1998).
# Tests used:
# [1] = target: T1, polymorphonuclear leucocyte elastase from human sputum (Homo sapiens, UniProt P08246); assay: Effect of serum albumin on elastase inhibitory activity (Example 13); type: biochemical; details: in the presence of 0.8% or 8% calf serum albumin
# T1 construct: Polymorphonuclear leukocyte elastase from human sputum (EPC Co; Funakoshi Yakuhin); purchased EPC Co. (via Funakoshi Yakuhin); host or cells: human sputum
# T1 sequence (P08246 30-267): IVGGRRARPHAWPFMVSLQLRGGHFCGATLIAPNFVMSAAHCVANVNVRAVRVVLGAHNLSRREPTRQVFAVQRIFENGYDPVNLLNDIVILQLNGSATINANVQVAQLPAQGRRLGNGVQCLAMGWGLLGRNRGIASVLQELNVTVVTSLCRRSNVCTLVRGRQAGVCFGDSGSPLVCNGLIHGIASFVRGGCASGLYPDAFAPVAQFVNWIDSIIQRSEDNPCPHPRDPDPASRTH
# Method: The inhibitory activity of a active-form (Asn^55 -Ala^107) SLPI fragment polypeptide on polymorphonuclear leucocyte elastase from human sputum was measured by the same procedure as in Example 12 in the presence of 0.8% or 8% calf serum albumin.
# [2] = target: T1, polymorphonuclear leucocyte elastase from human sputum; assay: Treatment with polymorphonuclear leucocyte elastase from human sputum (Examples 27, 30); type: in vitro ADME; details: 37° C.; N-terminal sequencing of SDS-PAGE bands
# Method: Polymorphonuclear leucocyte elastase from human sputum (EPC, Funakoshi Yakuhin) and SLPI were separately dissolved in a buffer (0.1M HEPES, 0.1M NaCl, 0.1% PEG 6000, pH 7.5) and the elastase solution was added to the SLPI solution, and the mixture was incubated at 37° C. Samples were taken as time elapsed, and to each sample were added Tris-HCl buffer (pH 6.8), SDS, 2-mercaptolethanol, glycerol, and Coomassie Brilliant Blue to final concentrations of 50 mM, 4 w/v %, 2 v/v %, 12 v/v % and 0.01 w/v % respectively. The mixture was subjected to SDS-polyacrylamide gel electrophoresis using Tricine (Sigma) as a polar buffer (Schagger, H., Anal. Biochem. 166, 368, 1987). After the electrophoresis, the gel was stained with Coomassie Brilliant Blue G-250, and decoloured with 50% (v/v) methanol/10% (v/v) acetic acid. […]
# (3) Next, polypeptides thus generated were electrically transferred to a membrane (Immobilon-p^SQ Millipore) using a Milli Blot-SDE apparatus (Millipore). […] After drying, relevant bands were cut out, and the peptide was cleaved from the N-terminal using an Applied Biosystems Protein-Sequencer (Applied Biosystems; 477A), and after PTH-conversion, the resulting amino acid derivatives were analyzed by a PTH-Amino acid analyzer (Applied Biosystems, 120A) to determine the N-terminal amino acid sequence. […]
substance,measurement,setting,value
(Asn^55 -Ala^107) SLPI: polypeptide having an amino acid sequence starting with the 55th Asn and ending at the 107th Ala of SLPI (NPTRRKPGKCPVTYGQCLMLNPPNFCEMDGQCKRDLKCCMGMCGKSCVSPVKA),effect of calf serum albumin on elastase inhibitory activity,[1],had no effect on its activity
same,selective cleavage sites with elastase from human sputum,[2],cleaved at the site between Thr^57 -Arg^58
